Common to all, as to assay: tandem affinity purification with Western blot
Experiment [1] concerns the target TAP-tagged Ada2 (S. cerevisiae) (UniProt Q02336).
In experiment [2] the target is TAP-tagged Esa1 (S. cerevisiae) (UniProt Q08649).
Experiment [3] deals with TAP-tagged Spt7 (S. cerevisiae) (UniProt P35177).
Sequence of UniProt P35177 (P35177 whole entry): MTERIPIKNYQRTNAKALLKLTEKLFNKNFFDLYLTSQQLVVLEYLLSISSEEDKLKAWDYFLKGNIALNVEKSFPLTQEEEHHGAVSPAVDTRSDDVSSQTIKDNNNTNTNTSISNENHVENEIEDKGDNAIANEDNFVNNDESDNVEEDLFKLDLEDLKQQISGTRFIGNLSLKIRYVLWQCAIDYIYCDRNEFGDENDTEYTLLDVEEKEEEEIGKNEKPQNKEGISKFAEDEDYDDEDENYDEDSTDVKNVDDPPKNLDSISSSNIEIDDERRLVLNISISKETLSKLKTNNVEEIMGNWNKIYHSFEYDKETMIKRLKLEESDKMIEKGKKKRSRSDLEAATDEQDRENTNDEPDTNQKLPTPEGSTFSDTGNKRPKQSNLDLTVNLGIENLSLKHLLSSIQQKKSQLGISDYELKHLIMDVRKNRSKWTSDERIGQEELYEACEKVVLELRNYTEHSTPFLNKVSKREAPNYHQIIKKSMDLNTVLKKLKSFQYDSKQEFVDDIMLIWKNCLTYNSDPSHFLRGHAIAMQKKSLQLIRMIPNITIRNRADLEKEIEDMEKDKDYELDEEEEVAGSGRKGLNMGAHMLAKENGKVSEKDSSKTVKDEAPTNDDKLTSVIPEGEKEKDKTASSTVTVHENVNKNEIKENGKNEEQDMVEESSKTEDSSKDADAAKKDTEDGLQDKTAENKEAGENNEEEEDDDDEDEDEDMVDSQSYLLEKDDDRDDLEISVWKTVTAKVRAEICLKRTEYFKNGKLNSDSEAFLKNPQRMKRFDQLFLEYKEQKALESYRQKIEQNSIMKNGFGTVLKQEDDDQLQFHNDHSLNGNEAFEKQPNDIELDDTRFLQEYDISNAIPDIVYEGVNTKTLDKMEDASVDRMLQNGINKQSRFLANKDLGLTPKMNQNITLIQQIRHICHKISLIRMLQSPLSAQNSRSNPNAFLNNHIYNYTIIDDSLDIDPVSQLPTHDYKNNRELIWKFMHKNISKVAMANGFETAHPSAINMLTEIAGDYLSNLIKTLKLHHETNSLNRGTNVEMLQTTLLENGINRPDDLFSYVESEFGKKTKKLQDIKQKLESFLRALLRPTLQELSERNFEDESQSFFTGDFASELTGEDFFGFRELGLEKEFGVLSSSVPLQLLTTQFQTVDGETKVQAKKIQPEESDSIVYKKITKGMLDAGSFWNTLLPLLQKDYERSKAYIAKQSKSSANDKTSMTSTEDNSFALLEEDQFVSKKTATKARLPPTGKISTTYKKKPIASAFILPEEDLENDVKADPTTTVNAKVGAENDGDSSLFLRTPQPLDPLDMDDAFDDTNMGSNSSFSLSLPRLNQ

Sequence of UniProt Q08649 (Q08649 whole entry): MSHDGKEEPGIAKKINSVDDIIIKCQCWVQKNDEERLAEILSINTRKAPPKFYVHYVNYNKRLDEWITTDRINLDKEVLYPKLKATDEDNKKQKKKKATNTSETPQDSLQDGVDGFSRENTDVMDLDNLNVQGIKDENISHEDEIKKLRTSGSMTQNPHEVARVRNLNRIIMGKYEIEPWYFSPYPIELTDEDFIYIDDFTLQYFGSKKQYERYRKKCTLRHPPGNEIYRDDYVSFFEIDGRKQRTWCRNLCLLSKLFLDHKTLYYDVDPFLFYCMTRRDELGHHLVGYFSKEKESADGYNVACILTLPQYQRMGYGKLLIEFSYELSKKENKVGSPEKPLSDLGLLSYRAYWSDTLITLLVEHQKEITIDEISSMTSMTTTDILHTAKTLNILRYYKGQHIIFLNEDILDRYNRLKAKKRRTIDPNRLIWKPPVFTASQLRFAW
Sequence of UniProt Q02336 (Q02336 whole entry): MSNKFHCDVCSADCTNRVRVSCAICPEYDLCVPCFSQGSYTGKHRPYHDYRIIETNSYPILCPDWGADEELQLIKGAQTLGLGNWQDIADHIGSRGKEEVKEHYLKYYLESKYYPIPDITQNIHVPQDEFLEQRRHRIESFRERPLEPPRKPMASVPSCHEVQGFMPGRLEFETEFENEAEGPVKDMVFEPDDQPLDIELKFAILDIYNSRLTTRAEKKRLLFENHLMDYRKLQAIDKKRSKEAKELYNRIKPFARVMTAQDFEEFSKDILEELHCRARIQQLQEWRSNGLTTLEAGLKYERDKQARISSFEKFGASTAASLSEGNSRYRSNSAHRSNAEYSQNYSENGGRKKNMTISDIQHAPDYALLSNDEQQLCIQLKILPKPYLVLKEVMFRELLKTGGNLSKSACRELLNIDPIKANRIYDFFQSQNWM

myc9-Tra1-G3745, P38811 1-3744 displayed an interaction against wild-type Tra1, percent (reduced to or by is not clear) in experiment [1] of 70%. Also, the amount co-purifying, percent of that found for wild-type Tra1 in experiment [2] and in experiment [3] was < 5% each time.

The record behind these values is publication PMC2943577.
